Here are results for one substance from patent US20170128527A1.

The target in the assay is Human Prolactin Receptor (PrlR) (human) (UniProt P16471). Nature of the assay: cell-based or functional assay.
Sequence of UniProt P16471 (P16471 25-622 limits assumed): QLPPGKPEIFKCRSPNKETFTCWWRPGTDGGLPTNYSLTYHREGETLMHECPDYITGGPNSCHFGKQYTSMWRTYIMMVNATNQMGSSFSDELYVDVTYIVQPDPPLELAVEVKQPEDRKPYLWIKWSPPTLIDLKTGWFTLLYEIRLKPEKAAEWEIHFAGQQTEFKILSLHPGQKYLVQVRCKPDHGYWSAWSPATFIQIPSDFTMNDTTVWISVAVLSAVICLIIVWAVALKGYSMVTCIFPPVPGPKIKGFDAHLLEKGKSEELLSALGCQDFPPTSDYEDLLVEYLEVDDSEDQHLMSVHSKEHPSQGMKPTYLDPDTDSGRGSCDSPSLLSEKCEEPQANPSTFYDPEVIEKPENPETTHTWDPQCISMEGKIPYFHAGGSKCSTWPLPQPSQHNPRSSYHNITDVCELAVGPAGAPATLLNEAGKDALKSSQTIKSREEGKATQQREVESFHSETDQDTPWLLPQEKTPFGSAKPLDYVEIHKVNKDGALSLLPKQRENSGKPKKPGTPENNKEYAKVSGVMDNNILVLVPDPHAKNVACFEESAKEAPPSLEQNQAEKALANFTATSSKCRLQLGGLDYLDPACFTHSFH

Regarding “Prl receptor antagonist Prl Δ1-9 S33A, Q73L, G129R, K190R (SEQ ID NO: 13) (from UniProt P01236 38-227) (ligand)”, the Invasion (AU), U251 MG cells, CytoSelect Cell Invasion Assay, OD 560 nm; Prl 200 ng/ml + antagonist 200 ng/ml (control 0.380) came to 0.379 AU and the Invasion (AU), U251 MG cells, CytoSelect Cell Invasion Assay, OD 560 nm; antagonist alone (control 0.380) amounted to 0.385 AU.
